Molecular target: T1, recombinant human insulin receptor (human, UniProt P06213-2 28-944, limits assumed)
T1 construct: also called rhIR; human IR
Test: direct ELISA, rhIR coated at 1 µg/ml, hybridoma supernatant, anti-mouse IgG-HRP detection
Protocol: Further characterizations of the 816C12 antibody were then performed using hybridoma supernatant such as rhIGF-1R or rmIGF-1R or rhIR ELISA. In all direct ELISAs, proteins of interest were immobilized (1 μg/ml) to the bottom of each well. After saturation, hybridoma supernatants were added to the wells. After a 1-hour incubation period and a washing step, a solution of goat anti-mouse IgG—HRP labelled polyclonal antibody was used for detection, prior to the addition of the TMB substrate. The reaction was stopped with a 1M […] solution before reading the OD with a spectrophotometer at a 450 nm wavelength.

T1 sequence (P06213 other isoform, or with tags, fused parts or gaps limits assumed): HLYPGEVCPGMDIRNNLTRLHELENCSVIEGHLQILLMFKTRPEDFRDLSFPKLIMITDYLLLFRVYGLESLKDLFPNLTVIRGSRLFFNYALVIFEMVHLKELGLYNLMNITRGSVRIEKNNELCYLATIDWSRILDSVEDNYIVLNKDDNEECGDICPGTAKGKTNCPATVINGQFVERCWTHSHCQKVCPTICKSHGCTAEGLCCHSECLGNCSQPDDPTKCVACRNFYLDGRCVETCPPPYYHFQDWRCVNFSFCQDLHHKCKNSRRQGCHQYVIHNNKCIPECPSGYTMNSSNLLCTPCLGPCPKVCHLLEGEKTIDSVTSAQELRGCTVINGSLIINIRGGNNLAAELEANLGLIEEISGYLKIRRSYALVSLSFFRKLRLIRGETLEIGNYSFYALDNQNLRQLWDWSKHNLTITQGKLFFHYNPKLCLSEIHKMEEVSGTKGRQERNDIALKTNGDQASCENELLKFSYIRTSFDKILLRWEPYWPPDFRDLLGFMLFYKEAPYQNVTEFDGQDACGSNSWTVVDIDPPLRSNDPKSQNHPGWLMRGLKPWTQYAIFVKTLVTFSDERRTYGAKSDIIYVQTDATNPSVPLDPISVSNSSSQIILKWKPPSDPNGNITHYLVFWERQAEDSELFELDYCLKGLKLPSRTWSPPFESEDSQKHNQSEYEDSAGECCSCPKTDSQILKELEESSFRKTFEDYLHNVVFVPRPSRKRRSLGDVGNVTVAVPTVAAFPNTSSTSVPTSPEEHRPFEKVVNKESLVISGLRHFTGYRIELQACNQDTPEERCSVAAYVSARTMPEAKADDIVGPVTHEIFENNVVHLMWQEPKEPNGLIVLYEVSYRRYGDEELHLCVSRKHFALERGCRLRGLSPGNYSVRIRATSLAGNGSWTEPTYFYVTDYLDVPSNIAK

B1: 816C12 anti-IGF-1R monoclonal antibody (antibody, V domains shown)
VH: EVQLQQSGPELVKPGASVKMSCKASGHTFTSYVLHWMKRKPGQGLEWIGYINPHNDVTKYNENFKGKATLTSDKYSSTVYMEVSSLTSEDSAVYYCVSTAYYGNGRYFDVWGAGTTVTVSS
VL: DIQMTQTTSSLSASLGDRVTISCRASQDINNYLNWYQQKPDGTVKLLIYYTSRLHSGVSSRFSGSGSGTDYSLTISNLEQEDIATYFCQQGNTLPWTFGGGTKLEIK
notes: Murine monoclonal antibody from a Balb/C hybridoma; It was used as hybridoma supernatant in the ELISAs and at 5 ug/ml in IHC; also called I-4894; antibody secreted by hybridoma CNCM I-4894
  binding result: no binding (tested: 5 µg/ml)

Source: US20210018508A1 (PIERRE FABRE MEDICAMENT, published 2021)
